Data set [1] concerns DPP IV. The settings on record: read-out: Km of DPP IV for GLP-1; cited from earlier work.
The nature of data set [2]: Stability of PGC-C18-GLP-1 formulation at 37°C. It counts as physicochemical. Conditions: GLP-1 without PGC-C18, liquid, 100mM glycine pH 6.8, 2mg/ml GLP-1, 37°C, total GLP-1 peak by reverse phase HPLC.
The nature of data set [3]: Appearance. It counts as physicochemical. Conditions: GLP-1 1mg/ml in neutral solution.
Data set [4] concerns the target Porcine kidney DPP IV (Sus scrofa, UniProt P22411). Kind of data set: DPP IV degradation of GLP-1 in the presence or absence of PGC or PGC-C18. It counts as in vitro ADME. Conditions: 24 hours, 37°C, reverse phase HPLC, mean +/−SD, n=6.

Chain of Porcine kidney DPP IV (P22411 whole entry): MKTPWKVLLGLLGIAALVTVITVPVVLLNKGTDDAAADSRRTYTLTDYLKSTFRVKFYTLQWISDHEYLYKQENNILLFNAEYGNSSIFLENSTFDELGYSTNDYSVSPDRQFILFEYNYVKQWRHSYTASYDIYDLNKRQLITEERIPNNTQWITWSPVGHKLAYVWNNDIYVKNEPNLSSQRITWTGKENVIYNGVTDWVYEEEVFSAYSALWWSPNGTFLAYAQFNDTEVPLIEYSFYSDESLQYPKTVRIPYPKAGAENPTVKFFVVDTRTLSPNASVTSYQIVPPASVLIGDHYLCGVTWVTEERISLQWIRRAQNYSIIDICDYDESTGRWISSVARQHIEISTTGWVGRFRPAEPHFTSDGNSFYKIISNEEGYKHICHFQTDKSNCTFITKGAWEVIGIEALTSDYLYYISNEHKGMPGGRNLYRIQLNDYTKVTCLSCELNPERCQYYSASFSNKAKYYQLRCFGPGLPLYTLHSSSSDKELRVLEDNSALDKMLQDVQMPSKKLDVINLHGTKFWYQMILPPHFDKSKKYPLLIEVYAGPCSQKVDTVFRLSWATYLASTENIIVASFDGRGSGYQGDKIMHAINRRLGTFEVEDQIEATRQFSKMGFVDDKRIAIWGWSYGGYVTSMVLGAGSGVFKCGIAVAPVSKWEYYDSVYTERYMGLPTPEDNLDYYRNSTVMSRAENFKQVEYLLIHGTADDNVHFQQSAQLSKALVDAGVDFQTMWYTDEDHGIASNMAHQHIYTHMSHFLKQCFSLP

With Glucagon-like peptide-1 [GLP-1], in data set [1], the Km is 36 µM. In data set [2], the “GLP-1 broken down within a month” value was “greater than 10%”. In addition, in data set [3] (50°C), the “appearance of solution when heated to 50°C” value is “quite clear”. The “appearance of solution as it cools down to room temperature” value in data set [3] (cooled from 50°C to room temperature) is “turns cloudy and less soluble”. For the same substance, the “GLP-1 degraded by DPP IV in the presence of the carrier PGC-C18” value in data set [4] (1mg/ml GLP-1 + 10mg/ml PGC-C18 (1:10 w/w), PBS pH 7.4, 1.25mU/mL DPP IV) is given as 26+/−2%. For the same substance, the “GLP-1 degraded by DPP IV, without any carrier” value in data set [4] (1mg/ml GLP-1, PBS pH 7.4, 1.25mU/mL DPP IV) was 58+/−5%.

The values are drawn from publication PMC3247650 (Pharmaceutical research, 2011).
